Experimental data: article PMC6420622, “Mutations in the PKM2 exon-10 region are associated with reduced allostery and increased nuclear translocation” (Communications Biology, 2019)

Molecular target: the molecule itself
Assay: crystal structure; PKM2 variant with Ser and FBP; hanging drop, 0.1 M Tris pH 7.5, 0.2 M NaCl, 14% PEG 3350, 4 °C; molecular replacement with PDB 4B2D

B1: His-tagged PKM2 R399E (enzyme)
chain: not shown
notes: Pyruvate kinase isoform M2 (PKM2), engineered mutant R399E; full-length cDNA in pET28a, site-directed mutagenesis; Crystallised with Ser and FBP (PDB 5X0I); also called His-PKM2 R399E; source: E. coli BL21 (DE3), purified (cobalt-chelated TALON resin)
- binding result: binds
